Test results from US20110165066A1 (AbbVie / Abbott, published 2011).
Residue numbers refer to the chain shown, from its start. Where two headings read alike, the source gives them in different places.

What was measured:
rhesus IL-13 [1] = biological target: T1, rhesus IL-13 (rhesus, UniProt Q864V6 21-132, limits assumed); test: SPR (Biacore)
Method: (§1) The BIACORE assay (Biacore, Inc, Piscataway, N.J.) determines the affinity of antibodies with kinetic measurements of on-, off-rate constants. […] All chemicals were obtained from Biacore® AB (Uppsala, Sweden) or otherwise from a different source as described in the text. Approximately 5000 RU of goat anti-mouse IgG, (Fcγ), fragment specific polyclonal antibody (Pierce Biotechnology Inc, Rockford, Ill.) diluted in 10 mM sodium acetate (pH 4.5) was directly immobilized across a CM5 research grade biosensor chip using a standard amine coupling kit according to manufacturer's instructions and procedures at 25 μg/ml. Unreacted moieties on the biosensor surface were blocked with ethanolamine. Modified carboxymethyl dextran surface in flowcell 2 and 4 was used as a reaction surface. Unmodified carboxymethyl dextran without goat anti-mouse IgG in flow cell 1 and 3 was used as the reference surface. For kinetic analysis, rate equations derived from the 1:1 Langmuir binding model were fitted simultaneously to association and dissociation phases of all eight injections (using global fit analysis) with the use of Biaevaluation 4.0.1 software. Purified antibodies were diluted in HEPES-buffered saline for capture across goat anti-mouse IgG specific reaction surfaces. Mouse antibodies to be captured as a ligand (25 μg/ml) were injected over reaction matrices at a flow rate of 5 μl/min. The association and dissociation rate constants, kₒₙ (unit M⁻¹s⁻¹) and koff (unit s⁻¹) were determined under a continuous flow rate of 25 μl/min Rate constants were derived by making kinetic binding measurements at ten different antigen concentrations ranging from 10-200 nM. […] Binding is recorded as a function of time and kinetic rate constants are calculated.

human IL-13 wild type [2] = biological target: T2, human IL-13 wild type (human, UniProt P35225 35-146); test: SPR (Biacore)
T2 construct: also called h IL-13; h IL-13 wt
T2 sequence (P35225 other isoform, or with tags, fused parts or gaps limits assumed): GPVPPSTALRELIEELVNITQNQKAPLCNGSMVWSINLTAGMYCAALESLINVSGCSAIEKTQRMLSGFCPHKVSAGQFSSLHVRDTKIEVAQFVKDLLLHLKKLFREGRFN
Method: as §1

cynomolgus IL-13 [3] = biological target: T3, cynomolgus IL-13 (cynomolgus, UniProt Q0PW92 21-132); test: SPR (Biacore)
T3 construct: also called cyno IL-13; wild type cyno IL-13
T3 sequence (Q0PW92 entry or part of it): as the sequence (P35225 other isoform, or with tags, fused parts or gaps limits assumed) above, with G1S, R10K, M42V, S67N, H83R, L100V, R110Q counted along it
Method: as §1

rhesus IL-13 [4] = biological target: T1, rhesus IL-13; test: cell-based or functional assay
human IL-13 wild type [5] = biological target: T2, human IL-13 wild type; test: cell-based or functional assay
cynomolgus IL-13 [6] = biological target: T3, cynomolgus IL-13; test: cell-based or functional assay
[7] = biological target: T4, human IL-13 variant (R130Q) (human, UniProt P35225 35-146); test: cell-based or functional assay
T4 sequence (P35225 35-146 limits assumed, stated change not applied): as the sequence (P35225 other isoform, or with tags, fused parts or gaps limits assumed) above, with R110Q counted along it

human IL-13 wild type [8] = biological target: T2, human IL-13 wild type; test: cell-based or functional assay; remark: listed apart in the source
mouse IL-13 = biological target: T5, mouse IL-13 (mouse, UniProt P20109 26-131, limits assumed); test: indirect ELISA, captured mAb, biotinylated mouse IL-13
T5 construct: also called mIL-13; murine IL-13
T5 sequence (looked up): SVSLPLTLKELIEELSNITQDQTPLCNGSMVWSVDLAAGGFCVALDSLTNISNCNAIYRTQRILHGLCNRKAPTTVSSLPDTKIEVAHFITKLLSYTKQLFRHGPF
Method: Murine anti-human IL-13 mAbs were prepared at various concentrations ranging from 0.1 to 100 ng/ml in PBS containing 0.1% BSA; 50 ul of each antibody dilution was added to the coated ELISA plate and incubated for 1 hour at room temperature. Wells were washed 3 times with PBS containing 0.05% Tween-20. […] Wells were washed 3 times with PBS containing 0.05% Tween-20. Streptavidin HRP (Pierce #21126, Rockland, Ill.) was diluted 1:20000 in PBS containing 0.1% BSA; […] was added and the plates incubated for 1 hour at room temperature. Plates were washed 3 times with PBS containing 0.05% Tween-20. Fifty microliters of TMB solution (Sigma # T0440, St. Louis, Mo.) was added to each well and incubated for 10 minutes at room temperature. The reaction was stopped by addition of 1N sulphuric acid. Plates were read spectrophotmetrically at a wavelength of 450 nm.

[9] = biological target: T4, human IL-13 variant (R130Q); test: cell-based or functional assay; remark: listed apart in the source
human IL-13 wild type [10] = biological target: T2, human IL-13 wild type; test: cell-based or functional assay; remark: listed apart in the source
cynomolgus IL-13 [11] = biological target: T3, cynomolgus IL-13; test: cell-based or functional assay; remark: listed apart in the source
[12] = biological target: T4, human IL-13 variant (R130Q); test: SPR (Biacore), mAb captured, IL-13 as analyte
Method: as §1

human IL-13 wild type [13] = biological target: T2, human IL-13 wild type; test: SPR (Biacore), mAb captured, IL-13 as analyte
Method: as §1

human IL-13 wild type [14] = biological target: T2, human IL-13 wild type; test: cell-based or functional assay; remark: listed apart in the source

T1 sequence (Q864V6 21-132 limits assumed): as the sequence (P35225 other isoform, or with tags, fused parts or gaps limits assumed) above, with G1S, P5R, R10K, M42V, S67N, H83R, L100V counted along it

B1: 13C5.5L2EL3F (antibody, V domains shown)
VH: EVTLRESGPGLVKPTQTLTLTCTLYGFSLSTSDMGVDWIRQPPGKGLEWLAHIWWDDVKRYNPALKSRLTISKDTSKNQVVLKLTSVDPVDTATYYCARTVSSGYIYYAMDYWGQGTLVTVSS
VL: DIQMTQSPSSLSASVGDRVTISCRASQDIRNYLNWYQQKPGKAPKLLIFYTSMKPRGVPSRFSGSGSGTDYTLTISSLQPEDIATYYCQQGLTPPLTFGGGTKVEIK
notes: constant regions not restated for this variant
Rhesus IL-13 [1]
  Kd: 0.13 nM
Human IL-13 wild type [2]
  Kd: 0.25 nM
Cynomolgus IL-13 [3]
  Kd: 0.32 nM
Rhesus IL-13 [4]
  Potency (IC50), A-549 bioassay: 0.26 nM
Human IL-13 wild type [5]
  Potency (IC50), A-549 bioassay: 0.12 nM
Cynomolgus IL-13 [6]
  Potency (IC50), A-549 bioassay: 0.48 nM

B2: 13C5.1 (antibody, human IgG1, V domains shown)
VH: EVTLKESGPVLVKPTETLTLTCTFSGFSLSTSDMGVDWIRQPPGKALEWLAHIWWDDVKRYNPALKSRLTISKDTSKSQVVLTMTNMDPVDTATYYCARTVSSGYIYYAMDYWGQGTTVTVSS
VL: DIQMTQSPSSLSASVGDRVTITCRASQDIRNYLNWYQRKPGKVVKLLIYYTSKLHSGVPSRFSGSGSGTDFTLTISSLQPEDVATYYCQQGNTLPLTFGGGTKVEIKR
notes: Humanized
[7]
  Potency (IC50), A-549 bioassay: 0.369 nM
Human IL-13 wild type [8]
  Potency (IC50), A-549 bioassay: 0.868 nM
Human IL-13 wild type [2]
  Kd: 0.71 nM
  koff: 0.000474 s⁻¹
  kon: 668000 M⁻¹ s⁻¹

B3: 13C5.2 (antibody, human IgG1, V domains shown)
VH: B2 VH
VL: B2 VL with S7T, T22S, Y49F, F71Y, Y87F
notes: Humanized
[7]
  Potency (IC50), A-549 bioassay: 0.13 nM
Human IL-13 wild type [8]
  Potency (IC50), A-549 bioassay: 0.193 nM
Human IL-13 wild type [2]
  Kd: 0.0979 nM
  koff: 0.000123 s⁻¹
  kon: 1.26e+06 M⁻¹ s⁻¹

B4: 5D3 (antibody, V domains shown)
VH: QVQLKESGPGLVAPSQSLSITCTVSGFSLTGYNINWVRQPPGKGLEWLGLIWGDGNTAFNSALKSRLSISKDNSKSQVFLKLNSLQTDDTARYYCARDGYYPYAIKYWGQGTSVTVSS
VL: NIVLTQSPASLAVSLGQRATISCRASETVDSYGNSFMHWYQQKPGQPPKLLIYLASNLESGVPARFSGSGSRTDFTLTIDPVEADDAATYYCQQNNEDPRTFGGGTKLEIKR
Mouse IL-13
  binding result: no binding (tested: 0.1 to 100 ng/ml)
[9]
  Average IC50, IL-13-induced TARC production by A-549 cells: 0.29 nM
Human IL-13 wild type [10]
  Average IC50, IL-13-induced TARC production by A-549 cells: 0.705 nM
Cynomolgus IL-13 [11]
  Average IC50, IL-13-induced TARC production by A-549 cells: 0.291 nM
[12]
  Kd: 0.387 nM
  koff: 0.000584 s⁻¹
  kon: 1.51e+06 M⁻¹ s⁻¹
Human IL-13 wild type [13]
  Kd: 0.296 nM
  koff: 0.000483 s⁻¹
  kon: 1.63e+06 M⁻¹ s⁻¹

B5: 13C5-Chim (antibody, human IgG1, V domains shown)
VH: QVTLKESGPGILQPSQTLSLTCSFSGFSLSTSDMGVDWIRQPSGKGLEWLAHIWWDDVKRYNPALKSRLTISKDTSSSQVFLMLASVDTADTATYYCARTVSSGYIYYAMDYWGQGTSVTVSS
VL: DIQMTQTASSLSASLGDRVTISCRASQDIRNYLNWYQRKPDGTVKLLIFYTSKLHSGVPSRFSGSGSGTDYSLTIRNLEQEDIATYFCQQGNTLPLTFGGGTKLEIKR
notes: also called chimeric 13C5
[7]
  Potency (IC50), A-549 bioassay: 0.037 nM
Human IL-13 wild type [8]
  Potency (IC50), A-549 bioassay: 0.107 nM
Human IL-13 wild type [14]
  Average IC50, IL-13-induced TARC production by A-549 cells: 0.191 nM
Human IL-13 wild type [2]
  Kd: 0.0568 nM
  koff: 9.65e-05 s⁻¹
  kon: 1.7e+06 M⁻¹ s⁻¹

B6: 5G1.5 (antibody, human IgG1, V domains shown)
VH: QVQLVQSGAEVKKPGASVKVSCKASGYTFTTYGVSWVRQAPGQGLEWIGEIYPGNYNTYYNEKFRGKATLTADKSTSTAYMELSSLRSEDTAVYYCSRWRTSYFSDYGYFDYWGQGTLVTVSS
VL: DIVMTQSPLSLPVTPGQPASISCRSSQSLVHSHGNTYLHWYLQKPGQSPKLLIYTVSNRFSGVPDRFSGSGSGTDFTLKISRVEAEDVGVYYCSQSTHVPYTFGGGTKVEIK
notes: Humanized; The heavy chain row is printed 'VN 5G1.5'
[7]
  Potency (IC50), A-549 bioassay: 0.0655 nM
Human IL-13 wild type [8]
  Potency (IC50), A-549 bioassay: 0.114 nM
Human IL-13 wild type [2]
  Kd: 0.022 nM
  koff: 1.91e-05 s⁻¹
  kon: 869000 M⁻¹ s⁻¹
